According to patent US20020031818A1, “Modification of Mdm2 activity” (priority 2000, published 2002):

Columns and labels:
GST-Mdm2 = target: T1, GST-Mdm2 (Homo sapiens, UniProt Q00987); experiment: In vitro ubiquitination of GST-Mdm2 (self-ubiquitination); format: biochemical; details: bacculovirus-purified p19ARF added to GST-Mdm2
T1 construct: made in house
Description: GST-Mdm2 was subjected to an in vitro ubiquitination reaction using purified forms of E1, E2 and Ub-HA in the presence of ATP. […] Glutathione bead-coupled GST-Mdm2 in its ubiquitinated or non-ubiquitinated forms was washed and analyzed on immunoblots using antibodies to HA (upper panel). Middle panel depicts the level of Mdm2 expression and the lower panel, the level of p19^ARF added to the reaction.

Ubc9 binding to Mdm2 = target: T2, Ubc9 binding to Mdm2 (Homo sapiens, UniProt Q00987); experiment: In vitro binding of Ubc9 to GST-Mdm2; details: in vitro translated p19ARF and Ubc9, GST-Mdm2 1 μg
T2 construct: made in house; host or cells: GST-Mdm2: bacteria; Ubc9: in vitro translation
T2 sequence (Q00987 whole entry): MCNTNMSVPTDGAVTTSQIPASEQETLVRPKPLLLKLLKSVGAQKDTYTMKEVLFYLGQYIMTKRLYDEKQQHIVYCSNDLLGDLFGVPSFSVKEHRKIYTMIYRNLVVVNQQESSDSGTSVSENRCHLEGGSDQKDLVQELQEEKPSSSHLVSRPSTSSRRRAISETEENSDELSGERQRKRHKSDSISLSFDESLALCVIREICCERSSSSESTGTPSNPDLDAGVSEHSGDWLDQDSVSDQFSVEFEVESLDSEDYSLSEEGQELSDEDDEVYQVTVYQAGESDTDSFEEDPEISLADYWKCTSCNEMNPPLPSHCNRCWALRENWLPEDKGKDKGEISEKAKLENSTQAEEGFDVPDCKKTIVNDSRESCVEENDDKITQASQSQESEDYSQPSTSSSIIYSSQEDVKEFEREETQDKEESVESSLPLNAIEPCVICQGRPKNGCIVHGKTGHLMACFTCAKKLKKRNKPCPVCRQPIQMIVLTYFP
Description: FIGS. 17A and 17B. A. p19^ARF decreases Ubc9 binding to Mdm2. Bacterially expressed and purified GST-Mdm2 (1 μg) was incubated with ^35S-labeled in vitro translated p19^ARF and Ubc9 at the indicated ratios. After 30 min of incubation GSH beads bound-GST-Mdm2 were washed and separated on a 12% SDS-PAGE. Gel was dried and subjected to autoradiograph, depicting relative amounts of Ubc9 and p19^ARF bound to Mdm2. B. Bacterially expressed and purified GST-Mdm2 (1 μg) was phosphorylated by purified form of active p38 kinase as indicated. Phosphorylated or un-phosphorylated Mdm2 was incubated for 30 min with in vitro translated UbcH5b and Ubc9 (25 μl). Beads were washed and separated on a 12% SDS-PAGE. Gel was dried and exposed to X-ray film. Position of Ubc9 and UbcH5b is shown.
A prerequisite for Mdm2 sumoylation is the association of Ubc9, the SUMO conjugating enzyme, with Mdm2, which enables subsequent conjugation of SUMO-1 to Mdm2. Inhibition of Ubc9's association with Mdm2 attenuates Mdm2 sumoylation. Given the effect of p19^ARF on Mdm2 sumoylation, we proceeded to determine whether p19^ARF may alter Ubc9 binding to Mdm2. To this end we performed an in vitro binding assay, using in vitro translated p19^ARF and Ubc-9, as indicated. […] We next assessed possible changes in Ubc9 binding to Mdm2 upon its phosphorylation by p38.

Mdm2 = Mdm2 (Homo sapiens, UniProt Q00987); experiment: Mdm2 sumoylation in EJ cells; format: cell-based, mouse; set-up: expressed in transfected cells; host or cells: EJ mouse fibroblasts (p19ARF null); details: EJ cells (lack p19ARF), Flag-Mdm2 and p19ARF constructs 2 μg
Mdm2, sequence (Q00987 whole entry): as above
Description: FIG. 13A-13E. A. Bacterially expressed and purified Mdm2 (1 μg) was incubated with ^32P-labeled Sumo-1, purified Aos1/Uba2 and Ubc9 (0.5 μg) for 60 min at 37° C. in conjugation buffer. For indicated time-periods in vitro translated wt or mutant p19^ARF ([…]) was added to the sumoylation reactions. Upper panel depicts the amount of Sumoylated Mdm2, lower panel reveal the level of Mdm2 and Sumo-Mdm2 in Coomassie blue gel. B. Bacterially expressed and purified Mdm2 (1 μg) was incubated with in vitro-translated ^35S-Sumo, purified Aos1/Uba2 and Ubc9 (0.5 μg) for 60 min at 37° C. in conjugation buffer in the presence of the increasing amounts of bacculovirus-expressed p19^ARF (0, 0.1, 0.5, 1 μg; lanes 1-4 respectively). Bead-bound complexes were washed before being denatured in 3× Sample Buffer. Proteins were separated on 8% SDS-PAGE. Gel was stained with Coomassie blue to verify equal Mdm2 input (lower panel), dried and exposed to X-ray film, which depicts SUMO-1 conjugation to Mdm2 in the presence of the indicated p19 forms (upper panel). […] (Left) Immunoprecipitated Mdm2 was detected using monoclonal Mdm2 antibodies (2A10, left). […] SUMO-conjugation to Mdm2 was detected using monoclonal antibodies to SUMO-1 (top). […]

T1 sequence (Q00987 whole entry): as above

B1: p19^ARF: Mdm2-regulating protein; in vitro translated, bacculovirus-expressed or transfected (protein)
chain: MGRRFLVTVRIQRAGRPLQERVFLVKFVRSRRPRTASCALAFVNMLLRLERILRRGPHRNPGPGDDDGQRSRSSSSAQLRCRFELRGPHYLLPPGARRSAGRLPGHAGGAARVRGSAGCARCLGSPAARLGPRAGTSRHRAIFAFRWVLFVFRWVVFVYRWERRPDRRA
Mdm2 ubiquitination in vitro (GST-Mdm2): efficient inhibition of Mdm2 ubiquitination in vitro | Ubc9 binding to Mdm2 in presence of increasing amounts of p19ARF (Ubc9 binding to Mdm2): dose dependent decrease in Ubc9 binding to Mdm2 | Mdm2 sumoylation in EJ cells upon co-expression (Mdm2): inhibition of Mdm2 sumoylation
